Data as given in patent US20200113969.

What was measured:
[1] = target: peak 2 of the RP-HPLC fractionation of L. albus deflamin (UniProt F5B8W8)
[2] = system: deflamin isolated from Lupinus albus seeds
[3] = system: peak 1 of the RP-HPLC fractionation of L. albus deflamin
[4] = system: peak 4 of the RP-HPLC fractionation of L. albus deflamin
[5] = target: peak 3 of the RP-HPLC fractionation of L. albus deflamin (UniProt F5B8W8)
Chain of peak 3 of the RP-HPLC fractionation of L. albus deflamin (F5B8W8 whole entry, looked up): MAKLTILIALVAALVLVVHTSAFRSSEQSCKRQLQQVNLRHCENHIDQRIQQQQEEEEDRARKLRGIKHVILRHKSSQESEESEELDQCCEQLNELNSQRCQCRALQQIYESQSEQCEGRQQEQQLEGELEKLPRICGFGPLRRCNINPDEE

Chain of MMP-9 (commercial enzyme, Sigma) (chain, as listed by the source): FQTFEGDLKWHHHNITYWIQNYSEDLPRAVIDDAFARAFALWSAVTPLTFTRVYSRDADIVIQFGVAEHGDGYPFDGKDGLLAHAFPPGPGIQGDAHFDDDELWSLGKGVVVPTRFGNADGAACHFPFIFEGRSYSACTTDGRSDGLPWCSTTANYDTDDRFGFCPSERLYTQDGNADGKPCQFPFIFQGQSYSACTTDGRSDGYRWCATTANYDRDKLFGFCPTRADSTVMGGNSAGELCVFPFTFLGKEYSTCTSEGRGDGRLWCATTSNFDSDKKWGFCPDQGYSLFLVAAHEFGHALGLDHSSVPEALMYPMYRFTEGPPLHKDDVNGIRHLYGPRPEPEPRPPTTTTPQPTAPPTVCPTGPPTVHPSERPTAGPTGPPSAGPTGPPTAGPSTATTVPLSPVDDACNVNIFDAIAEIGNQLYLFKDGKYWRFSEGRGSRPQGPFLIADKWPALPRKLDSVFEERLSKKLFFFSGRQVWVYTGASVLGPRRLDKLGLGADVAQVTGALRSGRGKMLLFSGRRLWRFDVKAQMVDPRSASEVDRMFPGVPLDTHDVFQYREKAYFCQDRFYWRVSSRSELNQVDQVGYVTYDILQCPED
Chain of peak 2 of the RP-HPLC fractionation of L. albus deflamin (F5B8W8 whole entry, looked up): as the sequence (F5B8W8 whole entry, looked up) above
Chain of deflamin isolated from Lupinus albus seeds (chain, as listed by the source, chain 1 of 2): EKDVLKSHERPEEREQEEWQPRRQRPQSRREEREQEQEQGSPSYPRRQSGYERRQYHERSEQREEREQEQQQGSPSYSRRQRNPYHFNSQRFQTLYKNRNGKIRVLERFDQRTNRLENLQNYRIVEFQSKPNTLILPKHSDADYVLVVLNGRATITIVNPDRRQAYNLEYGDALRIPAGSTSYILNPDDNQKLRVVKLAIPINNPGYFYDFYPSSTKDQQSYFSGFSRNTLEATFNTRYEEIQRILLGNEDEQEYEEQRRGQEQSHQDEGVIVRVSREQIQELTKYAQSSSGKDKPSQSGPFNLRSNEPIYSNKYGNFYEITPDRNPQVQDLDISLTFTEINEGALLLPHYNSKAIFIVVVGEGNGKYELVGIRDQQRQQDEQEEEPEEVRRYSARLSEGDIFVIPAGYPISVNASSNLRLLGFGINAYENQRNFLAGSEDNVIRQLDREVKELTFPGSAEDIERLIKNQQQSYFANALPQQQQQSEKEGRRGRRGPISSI
Chain of deflamin isolated from Lupinus albus seeds (chain, as listed by the source, chain 2 of 2): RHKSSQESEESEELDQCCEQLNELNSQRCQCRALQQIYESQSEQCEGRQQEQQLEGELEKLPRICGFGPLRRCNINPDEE

## MMP-9 (commercial enzyme, Sigma)
[1]
  MMP-9 proteolytic activity, DQ fluorogenic assay, 25 µg/ml: all the selected peaks presented some degree of MMP inhibition
[2]
  MMP-9 proteolytic activity on DQ-gelatin, deflamin at 50 µg/mL: the highest inhibition (P<0.05) detected for deflamin, which induced a reduction greater than 80% of MMP-9 activity
[3]
  MMP-9 proteolytic activity, DQ fluorogenic assay, 25 µg/ml: all the selected peaks presented some degree of MMP inhibition
[4]
  MMP-9 proteolytic activity, DQ fluorogenic assay, 25 µg/ml: all the selected peaks presented some degree of MMP inhibition
[5]
  MMP-9 proteolytic activity, DQ fluorogenic assay, 25 µg/ml: all the selected peaks presented some degree of MMP inhibition and also inhibited invasion, but peak 3 was the one with the highest observed activities
